From patent US20170233470A1 (INSERM INSTITUT NATIONAL DE LA SANT ET DE LA RECHERCHE M …, published 2017)

Biological target: Neurotensin (NTS) (UniProt P30990 151-163)
Assay: cell-based or functional assay

- apoptosis of A2780 cells (Annexin V-FITC/PI, flow cytometry), fold increase relative to control cells: 2.5 fold
- apoptosis of SKOV3 cells (Annexin V-FITC/PI, flow cytometry), fold increase relative to control cells: 8.2 fold
B1: NTSp27-7.4 (antibody, V domains shown)
VH: DVKLVESGGGLVKLGGSLKLSCAASGFTFSGYYMSWVRQTPEKRLELVAAINNYGDNTNYPDTVKGRFSVSRDNAKNTLYLEMNSLKSEDTALYYCARLANYANQRGAMDYWGQGTSVTVSS
VL: DIQMTHTTSSLSASLGDRVTISCRASQDIANYLNWYQQKPDGTVTLLIYYTSRLHSGVPSRFSGSGSGTDYSLTINNLDQEDIATYFCQQGYTLPPTFGGGTKLEIK
